From the supplement of paper PMC10567573

B1: PPP2R2B (parent)
chain: PSNRSFFSEIISSISDVKFSHSGR
B2: FAM189A2 (parent)
chain: NLAGFILGCQGAQFVSSVPRCDLV

Variants of: B1
Assay: protein stability index of a GFP-peptide fusion (GPS, HEK-293T) (PSI 1-6); higher = more stable
Conditions: c terminus: a fixed tail appended
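Further: lentivirally expressed fusions sorted by FACS into six bins by GFP to DsRed ratio, PSI derived from sequencing read proportions per bin multiplied by bin number.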

Protein stability index of substitutions, site by site:
F19: K 3.02 | I 2.43 | W 1.97 | N 3.15 | R 2.99 | P 3 | V 2.5 | G 2.86 | M 2.88 | D 3.52 | C 3.03 | Q 2.79 | L 2.93 | H 3.02 | A 3.07 | E 3.58 | T 3.07 | S 3.3 | Y 2.57
H21: N 2.48 | Q 2.26 | G 2.39 | I 2.13 | A 2.7 | M 2.41 | P 2.67 | L 2.03 | D 2.54 | E 2.87 | Y 1.97 | K 2.85 | V 2.04 | R 3.27 | F 1.88 | T 2.11 | C 2.22 | S 1.93 | W 2.31
S22: M 2.27 | L 2.48 | P 2.38 | I 2.11 | V 2.06 | Q 2.43 | R 2.71 | H 2.48 | K 2.64 | D 2.79 | C 1.89 | F 2.19 | N 2.58 | W 1.9 | G 2.57 | T 2.42 | E 2.37 | A 2.4 | Y 2.2
D16: G 2.29 | N 2.57 | I 1.74 | M 2.02 | R 2.15 | Q 2.42 | T 2.28 | Y 1.61 | L 2.05 | W 1.99 | V 2.17 | P 2.56 | E 2.28 | S 1.92 | C 1.92 | K 2.13 | H 2.19 | A 2.34 | F 1.66
S15: A 1.73 | Y 2.05 | P 2.85 | C 1.81 | I 2.26 | L 2.13 | W 2.34 | R 2.25 | V 2.27 | H 2.39 | K 2.35 | D 2.83 | T 2.05 | F 1.79 | M 2.08 | E 2.93 | Q 2.31 | N 2.77 | G 2.65
S20: D 2.88 | K 2.7 | T 2.78 | A 2.39 | G 2.26 | I 2.22 | Y 1.75 | N 2.27 | R 1.94 | M 1.95 | H 2.18 | Q 2.45 | W 2.38 | C 2.12 | F 2.02 | V 2.33 | P 2.48 | E 2.94 | L 2.41
S12: Y 2.3 | H 2.32 | K 2.49 | N 2.5 | R 2.31 | L 1.69 | T 2.28 | W 1.98 | F 1.72 | G 2.54 | Q 2.33 | I 3.11 | D 2.54 | M 2.04 | V 1.82 | P 2.65 | E 2.57 | A 2.23 | C 2.06
I11: L 2.3 | Y 3.4 | W 2.59 | M 2.69 | N 3.21 | S 3.2 | T 3.19 | R 2.97 | V 3.26 | Q 3.04 | P 3.57
V17: F 2.18 | D 3.18 | H 3.21 | R 2.31 | K 2.73 | I 2.53 | P 2.63 | L 2.75 | N 2.9 | Y 2.29 | S 2.5 | W 2.49 | A 2.27 | T 2.72 | E 3.05 | M 2.53 | C 2.4 | G 2.53 | Q 2.81
G23: I 1.88 | C 2.36 | R 2.54 | L 2.08 | A 2.31 | E 2.7 | K 2.49 | M 2.25 | Q 2.24 | V 1.66 | T 2.14 | S 2.33 | Y 2.27 | N 2.79 | F 2.09 | H 2.27 | W 2.09 | D 2.72 | P 2.74
S13: T 2.64 | K 2.19 | P 2.99 | Q 2.82 | D 2.58 | V 1.99 | F 1.73 | I 2.5 | M 1.76 | W 2.34 | H 2.67 | N 2.79 | A 1.87 | R 2.63 | L 2.45 | E 3.26 | Y 1.65 | C 2.19 | G 2.37
K18: P 2.23 | D 2.59 | C 1.94 | H 2.04 | M 2.02 | L 2.35 | N 2.36 | I 2.33 | R 2.55 | V 2.09 | A 2.15 | W 2.38 | E 2.35 | G 2.66 | S 2.61 | F 2.17 | Q 2.47 | Y 1.97 | T 2.31
R24: F 1.65 | N 2.81 | W 1.98 | H 1.94 | P 2.31 | K 2.65 | Q 2.39 | G 2.21 | Y 3.23 | L 1.75 | S 3.12 | T 2.33 | M 1.97 | V 1.59 | I 1.61 | A 2.36 | E 2.94 | D 3.18 | C 1.87
I14: Q 3.18 | K 3.17 | W 2.4 | A 2.79 | N 3.05 | E 4 | G 3.26 | V 2.81 | C 2.46 | L 2.54 | M 2.6 | Y 2.19 | F 2.17 | P 3.05 | D 3.04 | R 3.05 | H 2.79 | T 3.09 | S 3.19

Variants of: B2
Assay: as above
Conditions: c terminus: a fixed tail appended

Protein stability index, by site and new letter:
F5: P 3.25 | T 1.86 | D 2.16 | N 2.19 | M 1.7 | H 2.71 | Q 2.27 | E 2.18 | I 5.13 | G 1.5 | S 1.87
I6: A 1.46 | P 1.6 | N 2.11 | V 2.18 | K 2.29 | E 1.49 | D 2.68 | C 2.3 | R 1.78 | T 1.66 | F 2.78 | H 1.64 | G 1.79 | W 1.76 | S 1.98 | Q 1.94
L2: R 1.87 | W 1.35 | C 1.31 | G 1.23 | S 1.55 | K 2.67 | D 3.18 | P 1.26 | Q 3.01 | H 1.7 | F 2.65 | E 2.13 | I 3.93 | N 1.97 | T 1.76 | Y 2.72
A3: F 2.77 | K 2.35 | S 1.12 | H 2 | Q 1.03 | N 4.16 | T 3.18 | E 2.11 | P 1.45 | M 3.4 | D 1.84 | Y 3.97 | R 1.72 | W 3.4
G4: D 2.36 | T 3.08 | F 2.45 | Y 4.24 | N 3.42 | C 3.26 | P 3.65 | M 4.18
N1: Q 1.85 | Y 3.31 | H 2.03 | W 3.42 | K 2.77 | G 1.51 | C 2.92 | R 2.73 | L 2.75 | A 3.77 | P 2.63
